Source: patent publication US20260234655A1, “Nuclear Targeted DNA Delivery and Compositions for Use in Practicing the Same” (Seawolf Therapeutics, Inc., priority 2022, published 2026)
Entries after “also recorded” stand apart in the source; their conditions may differ.

Columns and labels:
[1] = system: growth-arrested HepG2 cells; experiment: Arrayed DTS screen in growth-arrested HepG2 cells; GFP intensity by live-cell imaging; type: cell-based; details: 24 h post-transfection
Source text: DNA construct design. Each DTS was constructed in pentameric repeat using a 15 bp spacer between each TFBS. The DTS was appended just 5′ to the promoter, effectively in a putative enhancer region. Various promoters were employed in these constructs, including CBh (a variant of the CAG promoter) and TTR. Several reporter genes were employed in these constructs, including enhanced Green Fluorescent Protein (eGFP). The polyadenylation (polyA) signal is a BGH-PolyA sequence. For pooled screening, unique molecular identifiers (UMIs; also known as barcodes) were used to distinguish between DNA constructs in a pool, and the UMIs were appended to the 3′UTR immediately downstream of the stop codon of eGFP, just preceding the BGH-PolyA sequence.
Cell culture. HepG2 cells were plated into a 384-well plate and grown for 48 hours to achieve confluency. Cell media was removed and replaced with culture media supplemented with Aphidicolin (1 uM) using EL406 automated plate washer and dispenser, then cells were transfected with DTS containing 17.5 ng plasmids using Lipofectamine 3000 without supplement. Expression of GFP was monitored using a Biotek Cytation 5 cell imaging reader over 24 hours to evaluate DTS activity. Total GFP per well was calculated and averaged over 4 well replicates.
pDNAs containing various DTSs (Table 12) were transfected individually into growth-arrested HepG2 cells. Cell growth was inhibited to prevent dissolution of the nuclear envelope. GFP expression was quantified over a period of 24 h post-transfection by measuring GFP intensity using quantitative live-cell imaging. Statistical analysis and hierarchical clustering methods were used to easily differentiate strong DTSs from weak DTSs in a heatmap (FIG. 5A). […] DTS.203: CREB1, PPARA, ONECUT1, HNF4A, PPARA. DTS.233: HNF1A, NR113, PPARA, HNF1A, PPARA. DTS.276: FOXA1, HNF4A, HNF1A, HNF4A, HNF1A.
For the arrayed screen, pDNAs containing various DTSs were transfected individually into growth-arrested HepG2 cells. For the pooled screen, pDNAs containing various DTSs were pooled together and transfected as a pool into growth-arrested HepG2 cells. Cell growth was inhibited to prevent dissolution of the nuclear envelope, which improves the accuracy of measuring DTS activity related to nuclear translocation. For the arrayed screen, GFP protein expression was quantified 24 h post-transfection by measuring GFP intensity using quantitative live-cell imaging. For the pooled screen, mRNA abundance for each DTS variant was determined using RNA-seq by deconvoluting the read counts for each UMI. A strong correlation between protein expression in the arrayed screen and mRNA expression in the pooled screen was observed (FIG. 6). […] Pooled screening can thus be used to quickly and reliably identify strong DTSs.

[2] = system: growth-arrested HepG2 cells; experiment: Pooled DTS screen in growth-arrested HepG2 cells; mRNA abundance by RNA-seq of UMIs; type: cell-based
Source text: Library cloning. Pooled DTS libraries were designed as described above. To ensure the highest quality library production of oligos for cloning, oligo lengths were standardized to 300 bp. To accommodate this standardized length the core sequence of each DTS was embedded center-justified in a neutral fragment of random DNA sequence. The flanks of each oligo contained unique golden gate restriction enzyme digestion sites (Bsal) for cloning of double stranded DNA into screening vectors. […] The proper UMI/DTS barcode correlation (termed here the “library registry”) was determined via excision of the hTTR/eGFP fragments, re-ligation of the vector, PCR amplification of the corresponding proximal DTS and UMI regions, and sequencing on an Illumina Miseq (2×150 bp reads). […]
Quantification of mRNA abundance from pooled DTS screens. […] The PCR amplified cDNA was then library prepped (NEBNext library prep for Illumina) and sequenced on an Illumina Miseq (2×150 bp reads). Counts for each UMI were translated into the corresponding DTS using the UMI/Barcode registry and changes in abundance of each DTS were statistically analyzed using a custom R script. The log 2 fold change is calculated by comparing the RNA level in the pool vs. its expected abundance, which is derived from the abundance in the corresponding input DNA pool. […]

Molecule	GFP intensity / gene expression in arrayed screen compared to Spacer negative control [1]	mRNA abundance in pooled screen relative to Spacer negative control [2]
DTS.276: combinatorial DTS: FOXA1, HNF4A, HNF1A, HNF4A, HNF1A binding sites (nucleic acid) DNA: TGTTTACTTTAGATTACTACTGATATCGAGCGCAGGTCAAAGGTCACCTGCAGATTACTACTGATAGGTTAATAATTAACAGATTACTACTGATATCGAGCGCTGGGCAAAGGTCACCTGCAGATTACTACTGATAAGTATGGTTAATGATCTACAG	performed equivalently or better than NFKB	
DTS.203: combinatorial DTS: CREB1, PPARA, ONECUT1, HNF4A, PPARA binding sites (nucleic acid) DNA: CTGACGTCAGAGATTACTACTGATACAAAACTAGGTCAAAGGTCAAGATTACTACTGATAGTCTGCTAAGTCAATAATCAGAATAGATTACTACTGATACGCCCCAGCACACATGATCAGAAGATTACTACTGATAAGGTCAAAGGTCA	performed equivalently or better than NFKB	
DTS.233: combinatorial DTS: HNF1A, NR1I3, PPARA, HNF1A, PPARA binding sites (nucleic acid) DNA: GGTTAATAATTAACAGATTACTACTGATACCTCTTCTCTGTGGGTGACCAGCGTCCTAAGATTACTACTGATAAACTAGGTCAAAGGTCAAGATTACTACTGATAAGTATGGTTAATGATCTACAGAGATTACTACTGATACAAAACTAGGTCAAAGGTCA	performed equivalently or better than NFKB; also recorded: robust increases	robust increases
